Results: the RNAGym collection of RNA variant scans (doi:10.1093/molbev/msab373)

B1: Azoarcus group I ribozyme (parent)
chain: GUGCCUUGCGCCGGGAAACCACGCAAGGGAUGGUGUCAAAUUCGGCGAAACCUAAGCGCCCGCCCGGGCGUAUGGCAACGCCGAGCCAAGCUUCGGCGCCUGCGCCGAUGAAGGUGUAGAGACUAGACGGCACCCACCUAAGGCAAACGCUAUGGUGAAGGCAUAGUCCAGGGAGUGGCGAAAGUCACACAAACCGG

Variants of: B1
Experiment: reverse-splicing fitness (ratio to wild type); higher = more active; in vitro selection; Mg2+ level not given
How it was run: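 An in vitro group I ribozyme library with randomized positions was T7-transcribed and gel-purified. In triplicate, 10 pmol RNA in EPPS pH 7.5 was reacted with 50 pmoles of a 30-nt RNA substrate for 1 h at 37 °C across several added MgCl2 levels (1–48 mM), then stopped with EDTA. Products were reverse transcribed from a substrate-complementary primer, PCR-amplified and sequenced (HiSeq 4000). Fitness is a variant's read proportion after selection over that before, normalised to wild type.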
C82A A111C A120C A145U C150A C169G U176C showed a reverse-splicing fitness of 0.0188. With C82A A111C A120C A145U C150A C169G U176G the reverse-splicing fitness was 0.00745. C82A A111C A120C A145U C150A C169G U176A showed a reverse-splicing fitness of 0.0154. In the case of C82A A111C A120C A145G C150U C169G U176G, the reverse-splicing fitness is reported as 0.00711. Variant C82A A111C A120C A145G C150U C169G U176A has a reverse-splicing fitness of 0.0127. C82A A111C A120C A145G C150U C169G U176C gave a reverse-splicing fitness of 0.0166. C82A A111C A120C A145U C150G C169A U176G gave a reverse-splicing fitness of 0.00744. With C82A A111C A120C A145U C150G C169A U176A the reverse-splicing fitness was 0.00956. For C82A A111C A120C A145U C150G C169A U176C, the reverse-splicing fitness was 0.0125. Work on C82A yielded a reverse-splicing fitness of 0.658. For C82A A111C A120C A145U C150G C169U U176A, the reverse-splicing fitness was 0.00763. C82A A111C A120C A145U C150G C169U U176C showed a reverse-splicing fitness of 0.0101. With C82A A111C A120C A145U C150G C169U U176G the reverse-splicing fitness was 0.00684. Work on C82A A111C A120C A145U C150G yielded a reverse-splicing fitness of 0.00822. For C82A A111C A120C A145U C150A, the reverse-splicing fitness was 0.00979. With C82A A111C A120C A145U C150U the reverse-splicing fitness was 0.0202. Variant C82A A111C A120C A145C C150G C169A has a reverse-splicing fitness of 0.00854. With C82A A111C A120C A145C C150G C169G the reverse-splicing fitness was 0.00631. C82A A111C A120C A145C C150G C169U showed a reverse-splicing fitness of 0.00879. Work on C82A A111C A120C A145C yielded a reverse-splicing fitness of 0.0248. With C82A A111C A120C A145G the reverse-splicing fitness was 0.0258. For C82A A111C A120C A145U, the reverse-splicing fitness was 0.0241. C82A A111C A120C A145C U176G gave a reverse-splicing fitness of 0.00663. Variant C82A A111C A120C A145C U176C has a reverse-splicing fitness of 0.0149. C82A A111C A120C A145C U176A showed a reverse-splicing fitness of 0.0123. Work on C82A A111C A120C A145C C150U C169A U176G yielded a reverse-splicing fitness of 0.00751. With C82A A111C A120C A145C C150U C169A U176A the reverse-splicing fitness was 0.0145. C82A A111C A120C A145C C150U C169A U176C showed a reverse-splicing fitness of 0.0112. With C82A A111C A120C A145U C150G U176A the reverse-splicing fitness was 0.00604. C82A A111C A120C A145U C150G U176C gave a reverse-splicing fitness of 0.00803. For C82A A111C A120C A145U C150G U176G, the reverse-splicing fitness was 0.00392. For C82A A111C A120C A145C C150A C169U U176A, the reverse-splicing fitness was 0.0165. Work on C82A A111C A120C A145C C150A C169U U176C yielded a reverse-splicing fitness of 0.0127. C82A A111C A120C A145C C150A C169U U176G showed a reverse-splicing fitness of 0.00786. In the case of C82A A111C A120C A145G C150U U176G, the reverse-splicing fitness is reported as 0.00852. In the case of C82A A111C A120C A145G C150U U176C, the reverse-splicing fitness is reported as 0.0208. C82A A111C A120C A145G C150U U176A gave a reverse-splicing fitness of 0.0119. C82A A111C A120C A145C C169U U176A gave a reverse-splicing fitness of 0.0123. In the case of C82A A111C A120C A145C C169U U176G, the reverse-splicing fitness is reported as 0.00595. In the case of C82A A111C A120C A145C C169U U176C, the reverse-splicing fitness is reported as 0.0141. With C82A A111C A120C A145U C150G C169G U176G the reverse-splicing fitness was 0.00725. Work on C82A A111C A120C A145U C150G C169G U176A yielded a reverse-splicing fitness of 0.00819. Work on C82A A111C A120C A145U C150G C169G U176C yielded a reverse-splicing fitness of 0.00621. Work on C82A A111C A120C A145G C150G U176A yielded a reverse-splicing fitness of 0.00652. Variant C82A A111C A120C A145G C150G U176C has a reverse-splicing fitness of 0.0113. Work on C82A A111C A120C A145G C150G U176G yielded a reverse-splicing fitness of 0.00679. With C82A A111C A120C A145G C150A C169A the reverse-splicing fitness was 0.0106. With C82A A111C A120C A145G C150A C169G the reverse-splicing fitness was 0.00833. C82A A111C A120C A145G C150A C169U gave a reverse-splicing fitness of 0.00994. Variant C82A A111C A120C A145G C169A U176G has a reverse-splicing fitness of 0.00684. C82A A111C A120C A145G C169A U176A gave a reverse-splicing fitness of 0.0249. C82A A111C A120C A145G C169A U176C gave a reverse-splicing fitness of 0.0288. C82A A111C A120C A145C C150U C169G U176G showed a reverse-splicing fitness of 0.00659. For C82A A111C A120C A145C C150U C169G U176A, the reverse-splicing fitness was 0.0269. Variant C82A A111C A120C A145C C150U C169G U176C has a reverse-splicing fitness of 0.0178. C82A A111C A120C A145U C150U C169A U176A gave a reverse-splicing fitness of 0.0153. In the case of C82A A111C A120C, the reverse-splicing fitness is reported as 0.0246. C82A A111C A120C A145C C150G C169U U176C showed a reverse-splicing fitness of 0.0112. With C82A A111C A120C A145C C150G C169U U176G the reverse-splicing fitness was 0.00564. In the case of C82A A111C A120C A145C C150G C169U U176A, the reverse-splicing fitness is reported as 0.00758. C82A A111C A120C A145C C150G C169G U176C showed a reverse-splicing fitness of 0.0101. C82A A111C A120C A145C C150G C169G U176A gave a reverse-splicing fitness of 0.00867. C82A A111C A120C A145C C150G C169G U176G gave a reverse-splicing fitness of 0.00702. Variant C82A A111C A120C A145U C150A C169U has a reverse-splicing fitness of 0.0124. Work on C82A A111C A120C A145U C150A C169A yielded a reverse-splicing fitness of 0.00876. With C82A A111C A120C A145U C150A C169G the reverse-splicing fitness was 0.00824. C82A A111C A120C A145G C150A C169G U176G gave a reverse-splicing fitness of 0.00821. With C82A A111C A120C A145G C150A C169G U176C the reverse-splicing fitness was 0.0238. Variant C82A A111C A120C A145G C150A C169G U176A has a reverse-splicing fitness of 0.0172. C82A A111C A120C A145G C169G U176C showed a reverse-splicing fitness of 0.0247. In the case of C82A A111C A120C A145G C169G U176A, the reverse-splicing fitness is reported as 0.0212. C82A A111C A120C A145G C169G U176G showed a reverse-splicing fitness of 0.00694. For C82A A111C A120C A145G C150G C169A U176G, the reverse-splicing fitness was 0.00798. Variant C82A A111C A120C A145G C150G C169A U176A has a reverse-splicing fitness of 0.0153. C82A A111C A120C A145G C150G C169A U176C gave a reverse-splicing fitness of 0.0121. With C82A A111C A120C A145U C150A U176A the reverse-splicing fitness was 0.0112. For C82A A111C A120C A145U C150A U176C, the reverse-splicing fitness was 0.0164. With C82A A111C A120C A145U C150A U176G the reverse-splicing fitness was 0.00638. Variant C82A A111C A120C A145U C150A C169A U176C has a reverse-splicing fitness of 0.0154. For C82A A111C A120C A145U C150A C169A U176G, the reverse-splicing fitness was 0.00859. Variant C82A A111C A120C A145U C150A C169A U176A has a reverse-splicing fitness of 0.0155. With C82A A111C A120C A145G U176A the reverse-splicing fitness was 0.0152. Work on C82A A111C A120C A145G U176G yielded a reverse-splicing fitness of 0.00691.
